Experimental findings from patent publication US10266842B2 (priority 2013, dated 2019) are described below.

The assay has as its system Fusarium graminearum (Strain IFA 65). The class given is cell-based.

B1: LserFCP1-77: 77-residue polypeptide of SEQ ID No. 1 (Lucilia sericata), prepared by solid-phase synthesis or recombinantly in E. coli (protein, listed as Lucilia sericata)
chain: QHGYGAGGHGQQGYGSQHSSHAPQGGHVVREQGFSGHVHEQQAGHHHEAGHHEQAGHHEQSGQQVHGQGHGYKSHGY
As to B1, the IC50 (Fusarium graminearum spores, 24 h at room temperature, from dose-effect relationship (FIG. 8), read-out: concentration in which a half-maximum inhibition (of spore germination) occurred) stood at 1600 nM.

B2: LserFCP1-73: 73-residue polypeptide of SEQ ID No. 2; LserFCP1-77 lacking the last four residues, made recombinantly in E. coli (protein, listed as Lucilia sericata)
chain: QHGYGAGGHGQQGYGSQHSSHAPQGGHVVREQGFSGHVHEQQAGHHHEAGHHEQAGHHEQSGQQVHGQGHGYK
As for B2, the “inhibition of spore germination” value (100 μM, compared to a water control (FIG. 9)) is reported as “complete inhibition”.
